Reference: patent publication US5693476
Values belong to the substance of their own block, whether it stands above or below them.

Key:
[1] = target: GST-syntaxin 1A deletion mutant Syn 1A13 (amino acids 4-221) (Schistosoma japonicum; rat); test: 20S complex assembly on GST-syntaxin beads with all four proteins together, ATPγS, 18° C. overnight MgCl2, Western blot densitometry, FIG. 6B
[2] = target: GST-syntaxin 1A H3 domain construct Syn 1A16 (amino acids 191-266) (Schistosoma japonicum; rat); test: as above
[3] = target: GST-syntaxin 1A deletion mutant Syn 1A17 (amino acids 4-240) (Schistosoma japonicum; rat); test: as above
[4] = target: GST-syntaxin 1A cytoplasmic domain fusion protein (Syn 1A11, amino acids 4-266), immobilized on glutathione agarose beads (Schistosoma japonicum; rat); test: as above
[5] = target: GST-syntaxin 1A deletion mutant Syn 1A6 (amino acids 4-190) (Schistosoma japonicum; rat); test: as above
[6] = target: GST-syntaxin 1A H3 domain construct Syn 1A16 (amino acids 191-266) (Schistosoma japonicum; rat); test: 20S complex on GST-Syn 1A16 beads, ATP and Mg++, Western blot densitometry
[7] = target: GST-syntaxin 1A deletion mutant Syn 1A17 (amino acids 4-240) (Schistosoma japonicum; rat); test: 20S complex on GST-Syn 1A17 beads, ATP and Mg++, Western blot densitometry
[8] = target: GST-syntaxin 1A cytoplasmic domain fusion protein (Syn 1A11, amino acids 4-266), immobilized on glutathione agarose beads (Schistosoma japonicum; rat); test: 20S complex assembly on GST-syntaxin beads with SNAP-25, VAMP, α-SNAP and NSF added together, ATP, 25° C., Western blot densitometry, FIG. 6A
[9] = target: GST-syntaxin 1A cytoplasmic domain fusion protein (Syn 1A11, amino acids 4-266), immobilized on glutathione agarose beads (Schistosoma japonicum; rat); test: 20S complex assembly on GST-syntaxin beads with SNAP-25, VAMP, α-SNAP and NSF added together, ATPγS, 25° C., Western blot densitometry, FIG. 6A
[10] = target: GST-syntaxin 1A deletion mutant Syn 1A13 (amino acids 4-221) (Schistosoma japonicum; rat); test: 20S complex assembly on GST-syntaxin beads with all four proteins together, ATP, 18° C. overnight MgCl2, Western blot densitometry, FIG. 6B
[11] = target: GST-syntaxin 1A H3 domain construct Syn 1A16 (amino acids 191-266) (Schistosoma japonicum; rat); test: as above
[12] = target: GST-syntaxin 1A deletion mutant Syn 1A17 (amino acids 4-240) (Schistosoma japonicum; rat); test: as above
[13] = target: GST-syntaxin 1A cytoplasmic domain fusion protein (Syn 1A11, amino acids 4-266), immobilized on glutathione agarose beads (Schistosoma japonicum; rat); test: as above
[14] = target: GST-syntaxin 1A deletion mutant Syn 1A6 (amino acids 4-190) (Schistosoma japonicum; rat); test: as above
[15] = target: VAMP 2 cytoplasmic domain (amino acids 1-94), recombinant, immobilized on the SPR flow cell (rat); test: SPR (BIAcore), VAMP 2 cytoplasmic domain immobilized; KD = kd/ka
[16] = target: VAMP 2 cytoplasmic domain (amino acids 1-94), recombinant, immobilized on the SPR flow cell (rat); test: SPR (BIAcore), VAMP 2 cytoplasmic domain immobilized
[17] = target: GST-syntaxin 1A deletion mutant Syn 1A13 (amino acids 4-221) (Schistosoma japonicum; rat); test: GST-syntaxin deletion mutant on glutathione beads, soluble ligand, Western blot densitometry; FIG. 4C row 4 from top, row label only in the figure (assigned by Table 1 order and paragraph 328)
[18] = target: GST-syntaxin 1A deletion mutant Syn 1A17 (amino acids 4-240) (Schistosoma japonicum; rat); test: GST-syntaxin deletion mutant on glutathione beads, soluble ligand, Western blot densitometry; FIG. 4C row 5 from top, row label only in the figure (assigned by Table 1 order and paragraph 328)
[19] = target: GST-syntaxin 1A deletion mutant Syn 1A6 (amino acids 4-190) (Schistosoma japonicum; rat); test: GST-syntaxin deletion mutant on glutathione beads, soluble ligand, Western blot densitometry; FIG. 4C row 3 from top, row label only in the figure (assigned by Table 1 order and paragraph 328)
[20] = target: GST-syntaxin 1A cytoplasmic domain fusion protein (Syn 1A11, amino acids 4-266), immobilized on glutathione agarose beads (Schistosoma japonicum; rat); test: GST-syntaxin 1A (wild type) on glutathione beads, soluble ligand, Western blot densitometry, FIG. 5B
[21] = target: GST-syntaxin 1A deletion mutant Syn 1A5 (amino acids 4-114) (Schistosoma japonicum; rat); test: GST-syntaxin deletion mutant on glutathione beads, soluble ligand, Western blot densitometry; FIG. 4C row 2 from top, row label only in the figure (assigned by Table 1 order and paragraph 328)
[22] = target: GST-syntaxin 1A (Syn1A11) point mutant M5: I230A, I233A (Schistosoma japonicum; rat); test: GST-syntaxin point mutant on glutathione beads, soluble ligand, Western blot densitometry, FIG. 5B
[23] = target: GST-syntaxin 1A (Syn1A11) point mutant 45 (Schistosoma japonicum; rat); test: as above
[24] = target: GST-syntaxin 1A (Syn1A11) point mutant 13 (four point mutations) (Schistosoma japonicum; rat); test: as above
[25] = target: GST-syntaxin 1A (Syn1A11) point mutant M4: V223A, Q226A (Schistosoma japonicum; rat); test: as above
[26] = target: GST-syntaxin 1A (Syn1A11) point mutant M6: A240V, V244A (Schistosoma japonicum; rat); test: as above
[27] = target: GST-syntaxin 1A (Syn1A11) point mutant M2: L205A, I209A (Schistosoma japonicum; rat); test: as above
[28] = target: GST-syntaxin 1A (Syn1A11) point mutant M1: R198A, I202A (Schistosoma japonicum; rat); test: as above
[29] = target: GST-syntaxin 1A (Syn1A11) point mutant 34 (Schistosoma japonicum; rat); test: as above
[30] = target: GST-syntaxin 1A (Syn1A11) point mutant M3: L212A, F216A (Schistosoma japonicum; rat); test: as above
[31] = target: GST-syntaxin 1A (Syn1A11) point mutant 12 (four point mutations) (Schistosoma japonicum; rat); test: as above
[32] = target: GST-syntaxin 1A deletion mutant Syn 1A4 (amino acids 8-76) (Schistosoma japonicum; rat); test: GST-syntaxin deletion mutant on glutathione beads, soluble ligand, Western blot densitometry; FIG. 4C row 1 from top, row label only in the figure (assigned by Table 1 order and paragraph 328)

Sequence of VAMP 2 cytoplasmic domain (amino acids 1-94), recombinant, immobilized on the SPR flow cell (rat) (chain, as listed by the source): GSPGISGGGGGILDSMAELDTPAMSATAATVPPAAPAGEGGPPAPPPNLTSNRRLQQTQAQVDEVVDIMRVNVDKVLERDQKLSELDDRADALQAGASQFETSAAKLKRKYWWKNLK
Sequence of His-tagged NSF (N-ethylmaleimide-sensitive factor), soluble recombinant (P18708 whole entry): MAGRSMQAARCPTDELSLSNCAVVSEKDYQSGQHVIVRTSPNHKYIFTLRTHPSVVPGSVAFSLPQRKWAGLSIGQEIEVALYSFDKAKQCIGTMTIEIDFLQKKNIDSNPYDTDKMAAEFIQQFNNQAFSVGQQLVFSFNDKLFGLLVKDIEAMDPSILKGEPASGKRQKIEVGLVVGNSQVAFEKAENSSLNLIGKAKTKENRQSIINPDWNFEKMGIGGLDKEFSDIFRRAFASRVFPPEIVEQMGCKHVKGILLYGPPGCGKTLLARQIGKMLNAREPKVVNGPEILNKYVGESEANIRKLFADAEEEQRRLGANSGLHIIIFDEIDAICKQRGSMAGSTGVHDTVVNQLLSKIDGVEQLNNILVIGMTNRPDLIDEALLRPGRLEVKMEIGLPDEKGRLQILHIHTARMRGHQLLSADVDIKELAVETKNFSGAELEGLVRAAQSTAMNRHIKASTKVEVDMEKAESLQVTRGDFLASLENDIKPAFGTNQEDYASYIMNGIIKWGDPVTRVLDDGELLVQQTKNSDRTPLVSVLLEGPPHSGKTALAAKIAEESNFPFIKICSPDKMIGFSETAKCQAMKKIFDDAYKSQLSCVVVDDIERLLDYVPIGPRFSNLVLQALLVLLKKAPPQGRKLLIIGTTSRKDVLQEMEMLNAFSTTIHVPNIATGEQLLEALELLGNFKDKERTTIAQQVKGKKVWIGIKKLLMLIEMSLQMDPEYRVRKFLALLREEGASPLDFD
Sequence of syntaxin 1A carboxyl-terminal domain (amino acids 194-267), soluble recombinant (chain): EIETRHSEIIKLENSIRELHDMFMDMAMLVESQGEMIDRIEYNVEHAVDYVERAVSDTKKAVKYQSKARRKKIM

- densitometry pixel value [1]: 46 pixel value
- densitometry pixel value [2]: 319 pixel value
- densitometry pixel value [3]: 295 pixel value
- densitometry pixel value [4]: 163 pixel value
- densitometry pixel value [5]: 0 pixel value
- percent dissociated in the presence of ATP and Mg++ [6]: 11%
- percent dissociated in the presence of ATP and Mg++ [7]: 30%
- densitometry pixel value [8]: 362 pixel value
- densitometry pixel value [9]: 1590 pixel value
- densitometry pixel value [10]: 12 pixel value
- densitometry pixel value [11]: 357 pixel value
- densitometry pixel value [12]: 198 pixel value
- densitometry pixel value [13]: 92 pixel value
- densitometry pixel value [14]: 0 pixel value
Substance: His-tagged NSF (N-ethylmaleimide-sensitive factor), soluble recombinant (from UniProt P18708) (enzyme)

- Kd [15]: 4.7 µM
- koff [16]: 0.0022 s⁻¹
- kon [16]: 470 M⁻¹ s⁻¹
Substance: syntaxin 1A carboxyl-terminal domain (amino acids 194-267), soluble recombinant

- densitometry pixel value [17]: 84 pixel value
- densitometry pixel value [18]: 2450 pixel value
- densitometry pixel value [19]: 0 pixel value
- densitometry pixel value [20]: 1070 pixel value
- densitometry pixel value [21]: 0 pixel value
- densitometry pixel value [22]: 15 pixel value
- densitometry pixel value [23]: 7 pixel value
- densitometry pixel value [24]: 79 pixel value
- densitometry pixel value [25]: 623 pixel value
- densitometry pixel value [26]: 687 pixel value
- densitometry pixel value [27]: 779 pixel value
- densitometry pixel value [28]: 522 pixel value
- densitometry pixel value [29]: 353 pixel value
- densitometry pixel value [30]: 554 pixel value
- densitometry pixel value [31]: 618 pixel value
- densitometry pixel value [32]: 0 pixel value
Substance: n-sec1, soluble recombinant (from UniProt P61765)
